The record followed here is patent US20200093883A1 (published 2020).

Square brackets hold non-standard residues; d marks the D form. Ends that are not written are not given here.

Among the targets are hJNK3; hJNK1; hJNK2.
What all share (experiment): AlphaScreen
(In general: In Alpha technology, singlet oxygen from a donor bead excites a nearby acceptor bead.)

B1: SEQ ID NO: 172 (peptide)
peptide: [dR]KKR[dR]QRR[dR]RP[dK]RP[dA]TLNL[dF]-NH2
modifications: N-terminus assumed
SMILES: CC(C)C[C@H](NC(=O)[C@H](CC(N)=O)NC(=O)[C@H](CC(C)C)NC(=O)[C@@H](NC(=O)[C@@H](C)NC(=O)[C@@H]1CCCN1C(=O)[C@H](CCCNC(=N)N)NC(=O)[C@@H](CCCCN)NC(=O)[C@@H]1CCCN1C(=O)[C@H](CCCNC(=N)N)NC(=O)[C@@H](CCCNC(=N)N)NC(=O)[C@H](CCCNC(=N)N)NC(=O)[C@H](CCCNC(=N)N)NC(=O)[C@H](CCC(N)=O)NC(=O)[C@@H](CCCNC(=N)N)NC(=O)[C@H](CCCNC(=N)N)NC(=O)[C@H](CCCCN)NC(=O)[C@H](CCCCN)NC(=O)[C@H](N)CCCNC(=N)N)[C@@H](C)O)C(=O)N[C@H](Cc1ccccc1)C(N)=O
One may read the IC50 as the concentration at which inhibition is half-maximal. Low values mean greater potency, high ones weaker potency. Consider B1, for which the values for the IC50 with hJNK3, in the test with hJNK1 and with hJNK2 were 0.102 µM, 0.722 µM and 0.0547 µM, respectively.

B2: SEQ ID NO: 197 (peptide)
peptide: [dD][dQ][dS][dR][dP][dV][dQ][dP][dF][dL][dN][dL][dT][dT][dP][dR][dK][dP][dR][dP][dP][dR][dR][dR][dQ][dR][dR][dK][dK][dR]G
Take B2: the IC50 turned out to be 1.29 µM in the test with hJNK3, 24.4 µM with hJNK1 and 0.802 µM with hJNK2.
